Paper PMC7760923
Several values for one entry are separate records, joined by “and”; a condition that tells them apart may be missing. Identical values can stand only once.

Legend:
P12643 = assay: dynamic light scattering (DLS); BMP-2 in MES buffer pH 5, 25 °C, 173°; association of BMP-2 dimers to aggregates; details: other: dynamic light scattering (DLS)
[1] = target: E. coli-derived recombinant human bone morphogenetic protein 2 (rhBMP-2) (human) (UniProt P12643); assay: native gel or EMSA; blue native PAGE of BMP-2 solutions, Western blot with anti-BMP-2 and silver stain; oligomers of the disulfide-bridged 26 kDa dimer

Sequence of E. coli-derived recombinant human bone morphogenetic protein 2 (rhBMP-2) (P12643 283-396 limits assumed): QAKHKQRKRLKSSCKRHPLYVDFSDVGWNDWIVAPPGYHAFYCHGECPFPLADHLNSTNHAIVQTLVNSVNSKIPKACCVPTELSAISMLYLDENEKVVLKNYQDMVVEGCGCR

stoichiometry N (26 kDa BMP-2 dimers) [1]	Substance	percent of BMP-2 in larger aggregates (DLS) (P12643)
–	E. coli-derived recombinant human bone morphogenetic protein 2 (rhBMP-2)	3% was apparently in the form of larger aggregates
2 and 4	E. coli-derived recombinant human bone morphogenetic protein 2 (rhBMP-2) (from UniProt P12643 24-396) (ligand)	–
